In paper PMC2120824 (The Journal of Cell Biology, 1996):
Values belong to the binder of their own block, whether it stands above or below them.

Target: T1, Drosophila septin polypeptide Pnut (Drosophila (endogenous in embryos), UniProt P40797 1-539)
T1 sequence (looked up): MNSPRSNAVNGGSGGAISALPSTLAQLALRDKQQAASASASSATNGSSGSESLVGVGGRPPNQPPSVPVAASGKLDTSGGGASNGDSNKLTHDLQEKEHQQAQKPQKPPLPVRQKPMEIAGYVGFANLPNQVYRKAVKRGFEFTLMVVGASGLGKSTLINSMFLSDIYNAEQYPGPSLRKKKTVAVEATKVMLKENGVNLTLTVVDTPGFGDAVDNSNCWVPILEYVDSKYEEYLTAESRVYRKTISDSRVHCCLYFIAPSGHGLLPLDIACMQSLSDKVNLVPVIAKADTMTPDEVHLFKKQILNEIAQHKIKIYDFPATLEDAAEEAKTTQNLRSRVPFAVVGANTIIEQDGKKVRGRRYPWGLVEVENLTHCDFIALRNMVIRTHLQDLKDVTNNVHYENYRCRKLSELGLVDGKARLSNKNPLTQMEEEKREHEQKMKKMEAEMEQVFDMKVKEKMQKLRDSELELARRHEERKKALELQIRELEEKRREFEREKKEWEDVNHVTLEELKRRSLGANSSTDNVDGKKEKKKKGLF
Experiment: co-IP

- stoichiometry N: ~1
B1: Drosophila septin polypeptide Sep2 (natural protein, Drosophila (endogenous in embryos), UniProt P54359 1-419, looked up)
chain: MSVEVDFVDKKEVHLRTLKQSGHVGFDSLPDQLVNKSVQNGFVFNVMCIGETGLGKSTLMDTLFNTSFESTPSPHTLPSVKLKAHTYELQESNVRLKLTICDTVGYGDQINKDDSFKAVVDYIDAQFENYLQEELKIKRSLVTCHDSRIHICLYFICPTGHGLKSLDLVCMKKLDSKVNIIPVIAKADTISKVELQRFKAKIIQELNANGVHIYQFPTDDETVAETNTSMNSHIPFAVVGSTEFIKVGNKLIRARQYPWGTVQVENETHCDFVKLREMLIRTNMEDMREKTHTRHYELYRQKRLEQMGFSDVDSDNKPISFQQTFEAKRSNHLAELQSKEEEVRQMFVQRVKEKEAELKESEKDLHAKFEKLKRDHAEEKRKLEESRKALEEDYLDFQRRKQQLATAHHTLTLGKSKKK

- stoichiometry N: ~1
B2: Drosophila septin polypeptide Sep1 (natural protein, Drosophila (endogenous in embryos), UniProt P42207 1-361, looked up)
chain: MADTKGFSSIETPGYVGFANLPNQVHRKSVKKGFEFTLMVVGESGLGKSTLVNSLFLTDLYPERIIPDAIEKQKQTVKLEASTVEIEERGVKLRLTVVDTPGFGDAIDNSNSFGAILEYIDEQYERFLRDESGLNRRNIVDNRIHCCFYFISPFGHGLKPLDVEFMKKLHSKVNIVPVIAKADCLTKKEILRLKCRIMQEIESHGIKIYPLPDCDSDEDEDYKEQVKQLKEAVPFAVCGANTLLEVKGKKVRGRLYPWGVVEVENPDHCDFIKLRTMLITHMQDLQEVTQEVHYENYRSDRLAKGIKGKENGVKAERDSSSQVVSNSVLGEKDRILQEKEAELRRMQEMLAQMQARMQAQQ
